Source: the RNAGym collection of RNA variant scans (doi:10.1021/acssynbio.7b00057)

B1: Pistol ribozyme (parent)
chain: GGGUCGUUGUUCCAUAAUCGCGUGGAUAUGGCACGCAAGUUUCUACCGGGCACCGUAAAUGUCCGACUGGAGCCGUUCGGGCGGCUAUAAACAGACCUCAGGCCCGAAGCGUGGCGGCACCUGCCGCCGGUGGUAAAAAAGAUCGGAAGAGCACACGUCU

Variants of: B1
Test: aptazyme ON/OFF ratio, guanine; higher = stronger switching; co-transcriptional cleavage with and without guanine

Variant | aptazyme ON/OFF ratio
GGGUCGUGGCCUAAUAAUCGCGUGGAUAUGGCACGCAAGUUUCUACCGGGCACCGUAAAUGUCCGACUGGAGCCGUUCGGGCGGCUAUAAACAGACCUCAGGCCCGAAGCGUGGCGGCACCUGCCGCCGGUGGUAAAAAAGAUCGGAAGAGCACACGUCU | 1.14
GGGUCGUGGCCUGAUAAUCGCGUGGAUAUGGCACGCAAGUUUCUACCGGGCACCGUAAAUGUCCGACUGGAGCCGUUCGGGCGGCUAUAAACAGACCUCAGGCCCGAAGCGUGGCGGCACCUGCCGCCGGUGGUAAAAAAGAUCGGAAGAGCACACGUCU | 1.27
GGGUCGUGGCCUUAUAAUCGCGUGGAUAUGGCACGCAAGUUUCUACCGGGCACCGUAAAUGUCCGACUGGAGCCGUUCGGGCGGCUAUAAACAGACCUCAGGCCCGAAGCGUGGCGGCACCUGCCGCCGGUGGUAAAAAAGAUCGGAAGAGCACACGUCU | 1.09
GGGUCGUGGCACAAUAAUCGCGUGGAUAUGGCACGCAAGUUUCUACCGGGCACCGUAAAUGUCCGACUGGAGCCGUUCGGGCGGCUAUAAACAGACCUCAGGCCCGAAGCGUGGCGGCACCUGCCGCCGGUGGUAAAAAAGAUCGGAAGAGCACACGUCU | 1.15
GGGUCGUGGCACGAUAAUCGCGUGGAUAUGGCACGCAAGUUUCUACCGGGCACCGUAAAUGUCCGACUGGAGCCGUUCGGGCGGCUAUAAACAGACCUCAGGCCCGAAGCGUGGCGGCACCUGCCGCCGGUGGUAAAAAAGAUCGGAAGAGCACACGUCU | 1.05
GGGUCGUGGCACUAUAAUCGCGUGGAUAUGGCACGCAAGUUUCUACCGGGCACCGUAAAUGUCCGACUGGAGCCGUUCGGGCGGCUAUAAACAGACCUCAGGCCCGAAGCGUGGCGGCACCUGCCGCCGGUGGUAAAAAAGAUCGGAAGAGCACACGUCU | 1.22
GGGUCGUGGCCAUAUAAUCGCGUGGAUAUGGCACGCAAGUUUCUACCGGGCACCGUAAAUGUCCGACUGGAGCCGUUCGGGCGGCUAUAAACAGACCUCAGGCCCGAAGCGUGGCGGCACCUGCCGCCGGUGGUAAAAAAGAUCGGAAGAGCACACGUCU | 1.05
GGGUCGUGGCCAAAUAAUCGCGUGGAUAUGGCACGCAAGUUUCUACCGGGCACCGUAAAUGUCCGACUGGAGCCGUUCGGGCGGCUAUAAACAGACCUCAGGCCCGAAGCGUGGCGGCACCUGCCGCCGGUGGUAAAAAAGAUCGGAAGAGCACACGUCU | 1.1
GGGUCGUGGCCAGAUAAUCGCGUGGAUAUGGCACGCAAGUUUCUACCGGGCACCGUAAAUGUCCGACUGGAGCCGUUCGGGCGGCUAUAAACAGACCUCAGGCCCGAAGCGUGGCGGCACCUGCCGCCGGUGGUAAAAAAGAUCGGAAGAGCACACGUCU | 1.11
GGGUCGUGGCCCGAUAAUCGCGUGGAUAUGGCACGCAAGUUUCUACCGGGCACCGUAAAUGUCCGACUGGAGCCGUUCGGGCGGCUAUAAACAGACCUCAGGCCCGAAGCGUGGCGGCACCUGCCGCCGGUGGUAAAAAAGAUCGGAAGAGCACACGUCU | 1.03
GGGUCGUGGCCCUAUAAUCGCGUGGAUAUGGCACGCAAGUUUCUACCGGGCACCGUAAAUGUCCGACUGGAGCCGUUCGGGCGGCUAUAAACAGACCUCAGGCCCGAAGCGUGGCGGCACCUGCCGCCGGUGGUAAAAAAGAUCGGAAGAGCACACGUCU | 1.04
GGGUCGUGGCCCAAUAAUCGCGUGGAUAUGGCACGCAAGUUUCUACCGGGCACCGUAAAUGUCCGACUGGAGCCGUUCGGGCGGCUAUAAACAGACCUCAGGCCCGAAGCGUGGCGGCACCUGCCGCCGGUGGUAAAAAAGAUCGGAAGAGCACACGUCU | 1.03
GGGUCGUGGCAUUAUAAUCGCGUGGAUAUGGCACGCAAGUUUCUACCGGGCACCGUAAAUGUCCGACUGGAGCCGUUCGGGCGGCUAUAAACAGACCUCAGGCCCGAAGCGUGGCGGCACCUGCCGCCGGUGGUAAAAAAGAUCGGAAGAGCACACGUCU | 1.22
GGGUCGUGGCAUAAUAAUCGCGUGGAUAUGGCACGCAAGUUUCUACCGGGCACCGUAAAUGUCCGACUGGAGCCGUUCGGGCGGCUAUAAACAGACCUCAGGCCCGAAGCGUGGCGGCACCUGCCGCCGGUGGUAAAAAAGAUCGGAAGAGCACACGUCU | 1.14
GGGUCGUGGCAUGAUAAUCGCGUGGAUAUGGCACGCAAGUUUCUACCGGGCACCGUAAAUGUCCGACUGGAGCCGUUCGGGCGGCUAUAAACAGACCUCAGGCCCGAAGCGUGGCGGCACCUGCCGCCGGUGGUAAAAAAGAUCGGAAGAGCACACGUCU | 1.14
GGGUCGUGGCAUCAUAAUCGCGUGGAUAUGGCACGCAAGUUUCUACCGGGCACCGUAAAUGUCCGACUGGAGCCGUUCGGGCGGCUAUAAACAGACCUCAGGCCCGAAGCGUGGCGGCACCUGCCGCCGGUGGUAAAAAAGAUCGGAAGAGCACACGUCU | 1.28
GGGUCGUGGCAACAUAAUCGCGUGGAUAUGGCACGCAAGUUUCUACCGGGCACCGUAAAUGUCCGACUGGAGCCGUUCGGGCGGCUAUAAACAGACCUCAGGCCCGAAGCGUGGCGGCACCUGCCGCCGGUGGUAAAAAAGAUCGGAAGAGCACACGUCU | 1.39
GGGUCGUGGCAGCAUAAUCGCGUGGAUAUGGCACGCAAGUUUCUACCGGGCACCGUAAAUGUCCGACUGGAGCCGUUCGGGCGGCUAUAAACAGACCUCAGGCCCGAAGCGUGGCGGCACCUGCCGCCGGUGGUAAAAAAGAUCGGAAGAGCACACGUCU | 1.26

Variant | aptazyme ON/OFF ratio
GGGUCGUGGCAGGAUAAUCGCGUGGAUAUGGCACGCAAGUUUCUACCGGGCACCGUAAAUGUCCGACUGGAGCCGUUCGGGCGGCUAUAAACAGACCUCAGGCCCGAAGCGUGGCGGCACCUGCCGCCGGUGGUAAAAAAGAUCGGAAGAGCACACGUCU | 1.09
GGGUCGUGGCAGAAUAAUCGCGUGGAUAUGGCACGCAAGUUUCUACCGGGCACCGUAAAUGUCCGACUGGAGCCGUUCGGGCGGCUAUAAACAGACCUCAGGCCCGAAGCGUGGCGGCACCUGCCGCCGGUGGUAAAAAAGAUCGGAAGAGCACACGUCU | 1.07
GGGUCGUGGCAGUAUAAUCGCGUGGAUAUGGCACGCAAGUUUCUACCGGGCACCGUAAAUGUCCGACUGGAGCCGUUCGGGCGGCUAUAAACAGACCUCAGGCCCGAAGCGUGGCGGCACCUGCCGCCGGUGGUAAAAAAGAUCGGAAGAGCACACGUCU | 1.27
GGGUCGUGGCAAUAUAAUCGCGUGGAUAUGGCACGCAAGUUUCUACCGGGCACCGUAAAUGUCCGACUGGAGCCGUUCGGGCGGCUAUAAACAGACCUCAGGCCCGAAGCGUGGCGGCACCUGCCGCCGGUGGUAAAAAAGAUCGGAAGAGCACACGUCU | 1.24
GGGUCGUGGCAAGAUAAUCGCGUGGAUAUGGCACGCAAGUUUCUACCGGGCACCGUAAAUGUCCGACUGGAGCCGUUCGGGCGGCUAUAAACAGACCUCAGGCCCGAAGCGUGGCGGCACCUGCCGCCGGUGGUAAAAAAGAUCGGAAGAGCACACGUCU | 1.11
GGGUCGUGGCAAAAUAAUCGCGUGGAUAUGGCACGCAAGUUUCUACCGGGCACCGUAAAUGUCCGACUGGAGCCGUUCGGGCGGCUAUAAACAGACCUCAGGCCCGAAGCGUGGCGGCACCUGCCGCCGGUGGUAAAAAAGAUCGGAAGAGCACACGUCU | 1.16
GGGUCGUGGCCCCAUAAUCGCGUGGAUAUGGCACGCAAGUUUCUACCGGGCACCGUAAAUGUCCGACUGGAGCCGUUCGGGCGGCUAUAAACAGACCUCAGGCCCGAAGCGUGGCGGCACCUGCCGCCGGUGGUAAAAAAGAUCGGAAGAGCACACGUCU | 1.19
GGGUCGUGGCGCCAUAAUCGCGUGGAUAUGGCACGCAAGUUUCUACCGGGCACCGUAAAUGUCCGACUGGAGCCGUUCGGGCGGCUAUAAACAGACCUCAGGCCCGAAGCGUGGCGGCACCUGCCGCCGGUGGUAAAAAAGAUCGGAAGAGCACACGUCU | 1.75
GGGUCGUGGCGACAUAAUCGCGUGGAUAUGGCACGCAAGUUUCUACCGGGCACCGUAAAUGUCCGACUGGAGCCGUUCGGGCGGCUAUAAACAGACCUCAGGCCCGAAGCGUGGCGGCACCUGCCGCCGGUGGUAAAAAAGAUCGGAAGAGCACACGUCU | 1.35
GGGUCGUGGCCGCAUAAUCGCGUGGAUAUGGCACGCAAGUUUCUACCGGGCACCGUAAAUGUCCGACUGGAGCCGUUCGGGCGGCUAUAAACAGACCUCAGGCCCGAAGCGUGGCGGCACCUGCCGCCGGUGGUAAAAAAGAUCGGAAGAGCACACGUCU | 1.21
GGGUCGUGGCCACAUAAUCGCGUGGAUAUGGCACGCAAGUUUCUACCGGGCACCGUAAAUGUCCGACUGGAGCCGUUCGGGCGGCUAUAAACAGACCUCAGGCCCGAAGCGUGGCGGCACCUGCCGCCGGUGGUAAAAAAGAUCGGAAGAGCACACGUCU | 1.09
GGGUCGUGGCCUCAUAAUCGCGUGGAUAUGGCACGCAAGUUUCUACCGGGCACCGUAAAUGUCCGACUGGAGCCGUUCGGGCGGCUAUAAACAGACCUCAGGCCCGAAGCGUGGCGGCACCUGCCGCCGGUGGUAAAAAAGAUCGGAAGAGCACACGUCU | 1.17
GGGUCGUGGCCGUAUAAUCGCGUGGAUAUGGCACGCAAGUUUCUACCGGGCACCGUAAAUGUCCGACUGGAGCCGUUCGGGCGGCUAUAAACAGACCUCAGGCCCGAAGCGUGGCGGCACCUGCCGCCGGUGGUAAAAAAGAUCGGAAGAGCACACGUCU | 1.15
GGGUCGUGGCCGGAUAAUCGCGUGGAUAUGGCACGCAAGUUUCUACCGGGCACCGUAAAUGUCCGACUGGAGCCGUUCGGGCGGCUAUAAACAGACCUCAGGCCCGAAGCGUGGCGGCACCUGCCGCCGGUGGUAAAAAAGAUCGGAAGAGCACACGUCU | 1.09
GGGUCGUGGCCGAAUAAUCGCGUGGAUAUGGCACGCAAGUUUCUACCGGGCACCGUAAAUGUCCGACUGGAGCCGUUCGGGCGGCUAUAAACAGACCUCAGGCCCGAAGCGUGGCGGCACCUGCCGCCGGUGGUAAAAAAGAUCGGAAGAGCACACGUCU | 1.1
GGGUCGUGGCGAGAUAAUCGCGUGGAUAUGGCACGCAAGUUUCUACCGGGCACCGUAAAUGUCCGACUGGAGCCGUUCGGGCGGCUAUAAACAGACCUCAGGCCCGAAGCGUGGCGGCACCUGCCGCCGGUGGUAAAAAAGAUCGGAAGAGCACACGUCU | 1.13
GGGUCGUGGCGAUAUAAUCGCGUGGAUAUGGCACGCAAGUUUCUACCGGGCACCGUAAAUGUCCGACUGGAGCCGUUCGGGCGGCUAUAAACAGACCUCAGGCCCGAAGCGUGGCGGCACCUGCCGCCGGUGGUAAAAAAGAUCGGAAGAGCACACGUCU | 1.2
GGGUCGUGGCGAAAUAAUCGCGUGGAUAUGGCACGCAAGUUUCUACCGGGCACCGUAAAUGUCCGACUGGAGCCGUUCGGGCGGCUAUAAACAGACCUCAGGCCCGAAGCGUGGCGGCACCUGCCGCCGGUGGUAAAAAAGAUCGGAAGAGCACACGUCU | 1.16
